Measured values taken from US20200078439A1.

Biological target: HLA-DR molecules of the vaccinated patients
Assay: cell-based or functional assay

B1: BIR-002 (Survivin 97-111: …) (peptide)
peptide: TLGEFLKLDRERAKN
B1 showed an immuno-response in vaccinated patients in vivo (IFN-g ELISPOT, +/- ICS) (out of 19 patients) of 16.
